Paper doi:10.1101/2021.02.02.429153 (bioRxiv, 2021)

Target: T1, tryptophan 2-C-methyltransferase (TsrM) from Streptomyces laurentii (Streptomyces laurentii, UniProt C0JRZ9 1-599)
T1 sequence (looked up): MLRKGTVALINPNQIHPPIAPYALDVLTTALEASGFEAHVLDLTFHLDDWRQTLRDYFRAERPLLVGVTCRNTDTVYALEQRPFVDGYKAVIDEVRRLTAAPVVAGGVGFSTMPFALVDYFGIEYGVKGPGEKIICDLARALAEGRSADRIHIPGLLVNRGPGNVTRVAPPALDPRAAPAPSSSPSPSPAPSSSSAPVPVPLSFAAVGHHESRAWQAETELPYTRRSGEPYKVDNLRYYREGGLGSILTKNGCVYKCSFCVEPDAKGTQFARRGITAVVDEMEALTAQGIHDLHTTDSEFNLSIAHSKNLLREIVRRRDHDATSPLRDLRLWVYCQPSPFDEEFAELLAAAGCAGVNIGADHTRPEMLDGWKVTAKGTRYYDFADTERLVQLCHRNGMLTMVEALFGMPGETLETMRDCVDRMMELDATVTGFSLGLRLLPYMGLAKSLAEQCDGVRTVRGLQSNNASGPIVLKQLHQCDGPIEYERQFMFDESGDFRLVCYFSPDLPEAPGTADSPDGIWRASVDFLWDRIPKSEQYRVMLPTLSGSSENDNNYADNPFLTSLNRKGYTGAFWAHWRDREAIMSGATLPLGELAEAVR
Assay: BLI

B1: Streptomyces cattleya [4Fe-4S] ferredoxin Fdx1 (natural protein, UniProt F8K3M7 1-106, looked up)
chain: MTYVIAQPCVDVKDKACIEECPVDCIYEGQRSLYIHPDECVDCGACEPVCPVEAIFYEDDTPEEWKDYYKANVEFFDELGSPGGASKLGLIERDHPFIAALPPQNG
modifications: biotinylated through incubation with 1 equivalent of NHS-PEG4-Biotin
  Kd: 40 µM
